{"source": "FireProtDB (doi:10.1021/bi0512400)", "proteins": {"B1": {"name": "Alpha-lactalbumin wild type, P00712 (protein)", "chain": "MMSFVSLLLVGILFHATQAEQLTKCEVFQKLKDLKDYGGVSLPEWVCTAFHTSGYDTQAIVQNNDSTEYGLFQINNKIWCKDDQNPHSRNICNISCDKFLDDDLTDDIVCAKKILDKVGINYWLAHKALCSEKLDQWLCEKL"}}, "settings": "Capra hircus; pH 7.5; 25 °C; GdnHCl; CD; Tris 20 mM; Ca2+ 10 mM; whole UniProt chain shown", "data": [{"protein": "B1", "values": [{"measurement": "denaturant m value", "value": 3, "unit": "kcal/mol/M"}, {"measurement": "unfolding free energy", "value": 10.2, "unit": "kcal/mol"}]}]}
